According to patent US20230059341A1 (TESARO, published 2023):
Read-outs that look alike come from different tables or passages of the source.

Columns and labels:
[1] = target: T1, PD-1 protein constitutively expressed on engineered CHO K1 cells (UniProt Q15116 25-288, limits assumed); test: MSD potency assay: competitive binding on CHO K1 cells expressing PD-1, inhibition of PD-L1-mFc binding, ECL; percent of reference material
T1 construct: whole, on cells; also called programmed cell death protein 1
T1 sequence (Q15116 25-288 limits assumed, change not shown): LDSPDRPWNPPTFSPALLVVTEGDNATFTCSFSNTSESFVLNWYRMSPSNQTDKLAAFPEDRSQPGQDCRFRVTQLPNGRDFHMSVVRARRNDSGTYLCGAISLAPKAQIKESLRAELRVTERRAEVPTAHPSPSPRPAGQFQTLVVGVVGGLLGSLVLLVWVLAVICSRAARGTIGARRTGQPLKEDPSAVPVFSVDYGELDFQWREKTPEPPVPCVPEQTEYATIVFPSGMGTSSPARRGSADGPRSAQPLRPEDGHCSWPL
Description: (§1) The Meso Scale Discovery (MSD) potency assay employs engineered CHO K1 cells constitutively expressing the PD-1 protein. […] The readout is measured using a specific detection antibody mixture that releases an electrochemiluminescence (ECL) signal that can be quantified.

[2] = target: T2, human PD-1 on PD-1 effector cells (Jurkat T cells, Promega #J1155) (human, UniProt Q15116 25-288); test: cell-based or functional assay
T2 sequence (Q15116 25-288): as the sequence (Q15116 25-288 limits assumed, change not shown) above

[3] = target: T3, Neonatal Fc Receptor (FcRn) (UniProt P55899 24-297; P61769 21-119, limits assumed); test: FcRn binding assay, BIACORE (SPR)
T3 sequence (P55899 24-297 limits assumed, chain 1 of 2): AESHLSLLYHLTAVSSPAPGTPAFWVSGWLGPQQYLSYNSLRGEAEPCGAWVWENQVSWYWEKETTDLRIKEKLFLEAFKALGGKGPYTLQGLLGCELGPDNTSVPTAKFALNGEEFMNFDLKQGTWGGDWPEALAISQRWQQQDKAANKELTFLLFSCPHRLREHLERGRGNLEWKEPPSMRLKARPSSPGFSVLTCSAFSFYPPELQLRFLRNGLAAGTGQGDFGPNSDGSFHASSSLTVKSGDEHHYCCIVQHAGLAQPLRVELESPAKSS
T3 sequence (P61769 21-119 limits assumed, chain 2 of 2): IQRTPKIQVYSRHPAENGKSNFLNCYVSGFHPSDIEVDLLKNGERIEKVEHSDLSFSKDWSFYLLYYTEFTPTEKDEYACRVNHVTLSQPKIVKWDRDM

[4] = target: T3, Neonatal Fc Receptor (FcRn); test: FcRn binding assay, BIACORE (SPR); remark: listed apart in the source
[5] = target: T1, PD-1 protein constitutively expressed …; test: MSD potency assay: competitive binding on CHO K1 cells expressing PD-1, inhibition of PD-L1-mFc binding, ECL; percent of reference material; remark: listed apart in the source
Description: as §1

[6] = target: T2, human PD-1 on PD-1 effector cells …; test: cell-based or functional assay; remark: listed apart in the source
[7] = target: T3, Neonatal Fc Receptor (FcRn); test: FcRn binding assay, BIACORE (SPR); remark: listed apart in the source
[8] = target: T3, Neonatal Fc Receptor (FcRn); test: BIACORE (SPR), antibody immobilized on sensor chip, FcRn injected as analyte
Description: FcRn binding was assessed via BIACORE analysis. […] Various concentrations of analyte (FcRn) were injected for analysis of the association and dissociation properties.

[9] = target: T3, Neonatal Fc Receptor (FcRn); test: FcRn binding assay, BIACORE (SPR); remark: listed apart in the source
[10] = target: T1, PD-1 protein constitutively expressed …; test: MSD potency assay: competitive binding on CHO K1 cells expressing PD-1, inhibition of PD-L1-mFc binding, ECL; percent of reference material; remark: listed apart in the source
Description: as §1

[11] = target: T2, human PD-1 on PD-1 effector cells …; test: cell-based or functional assay; remark: listed apart in the source
[12] = target: T2, human PD-1 on PD-1 effector cells …; test: cell-based or functional assay; remark: listed apart in the source
[13] = target: T1, PD-1 protein constitutively expressed …; test: MSD potency assay: competitive binding on CHO K1 cells expressing PD-1, inhibition of PD-L1-mFc binding, ECL; percent of reference material; remark: listed apart in the source
Description: as §1

[14] = target: T2, human PD-1 on PD-1 effector cells …; test: cell-based or functional assay; remark: listed apart in the source
[15] = target: T3, Neonatal Fc Receptor (FcRn); test: FcRn binding assay, BIACORE (SPR); remark: listed apart in the source

B1: Dostarlimab, H2O2 treated, 25° C., 2 weeks (antibody, human IgG4 S228P, kappa)
heavy: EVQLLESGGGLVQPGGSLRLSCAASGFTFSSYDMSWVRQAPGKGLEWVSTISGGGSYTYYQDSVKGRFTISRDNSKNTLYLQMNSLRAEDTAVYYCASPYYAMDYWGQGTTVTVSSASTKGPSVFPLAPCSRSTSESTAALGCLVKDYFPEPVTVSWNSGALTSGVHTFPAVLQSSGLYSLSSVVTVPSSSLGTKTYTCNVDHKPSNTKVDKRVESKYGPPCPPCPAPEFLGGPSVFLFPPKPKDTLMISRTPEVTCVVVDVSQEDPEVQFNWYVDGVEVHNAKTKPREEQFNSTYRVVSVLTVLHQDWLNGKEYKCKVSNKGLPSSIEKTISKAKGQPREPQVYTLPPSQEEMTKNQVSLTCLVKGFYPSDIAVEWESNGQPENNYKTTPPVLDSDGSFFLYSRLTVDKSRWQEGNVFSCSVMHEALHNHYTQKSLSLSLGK
light: DIQLTQSPSFLSAYVGDRVTITCKASQDVGTAVAWYQQKPGKAPKLLIYWASTLHTGVPSRFSGSGSGTEFTLTISSLQPEDFATYYCQHYSSYPWTFGQGTKLEIKRTVAAPSVFIFPPSDEQLKSGTASVVCLLNNFYPREAKVQWKVDNALQSGNSQESVTEQDSKDSTYSLSSTLTLSKADYEKHKVYACEVTHQGLSSPVTKSFNRGEC
modifications: percent of population: Trp 50 oxidation 1.3; Asn 137 deamidation 1.3; percent of population: Met 34 oxidation 28.8; Met 83 oxidation 1.1; Met 103 oxidation 86.1; Met 248 oxidation 99.6; Asn 311 deamidation 7.4; Met 354 oxidation 99.8; Asn 380 deamidation 10.5; Asn 385 deamidation 1.9; Met 424 oxidation 98.1; Lys 443 clipped 97.7
notes: 0.1% (v:v) H2O2; also called H2O2, 25° C., 2 weeks
- Relative Potency, MSD Binding [1]: 74%
- Relative Potency, Cell-Based Bioassay [2]: 47%
- Kd [3]: 12400 nM

B2: Dostarlimab, base degraded, T0 (exposed to pH 9.0, no incubation) (antibody, human IgG4 S228P, kappa)
heavy: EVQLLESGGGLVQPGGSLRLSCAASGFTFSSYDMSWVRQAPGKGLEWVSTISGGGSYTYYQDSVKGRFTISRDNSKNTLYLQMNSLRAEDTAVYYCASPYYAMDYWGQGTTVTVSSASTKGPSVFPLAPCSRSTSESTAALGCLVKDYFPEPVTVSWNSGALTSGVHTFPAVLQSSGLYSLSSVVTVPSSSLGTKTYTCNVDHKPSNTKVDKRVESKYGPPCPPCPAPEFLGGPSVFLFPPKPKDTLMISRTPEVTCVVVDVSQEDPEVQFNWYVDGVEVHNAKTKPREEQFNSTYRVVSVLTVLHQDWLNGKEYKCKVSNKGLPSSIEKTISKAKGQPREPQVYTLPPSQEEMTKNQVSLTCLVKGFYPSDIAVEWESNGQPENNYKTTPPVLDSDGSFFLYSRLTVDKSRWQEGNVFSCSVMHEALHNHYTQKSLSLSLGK
light: DIQLTQSPSFLSAYVGDRVTITCKASQDVGTAVAWYQQKPGKAPKLLIYWASTLHTGVPSRFSGSGSGTEFTLTISSLQPEDFATYYCQHYSSYPWTFGQGTKLEIKRTVAAPSVFIFPPSDEQLKSGTASVVCLLNNFYPREAKVQWKVDNALQSGNSQESVTEQDSKDSTYSLSSTLTLSKADYEKHKVYACEVTHQGLSSPVTKSFNRGEC
modifications: percent of population: Asn 137 deamidation 1.3; percent of population: Met 248 oxidation 2.8; Asn 311 deamidation 6.8; Asn 380 deamidation 10.8; Asn 385 deamidation 1.8; Lys 443 clipped 96.9
notes: Mixture; HMW 8.1%, acidic peaks 27.2%
- Kd [4]: 2260 nM

B3: Dostarlimab, thermally degraded, 40° C., 3 weeks (antibody, human IgG4 S228P, kappa)
heavy: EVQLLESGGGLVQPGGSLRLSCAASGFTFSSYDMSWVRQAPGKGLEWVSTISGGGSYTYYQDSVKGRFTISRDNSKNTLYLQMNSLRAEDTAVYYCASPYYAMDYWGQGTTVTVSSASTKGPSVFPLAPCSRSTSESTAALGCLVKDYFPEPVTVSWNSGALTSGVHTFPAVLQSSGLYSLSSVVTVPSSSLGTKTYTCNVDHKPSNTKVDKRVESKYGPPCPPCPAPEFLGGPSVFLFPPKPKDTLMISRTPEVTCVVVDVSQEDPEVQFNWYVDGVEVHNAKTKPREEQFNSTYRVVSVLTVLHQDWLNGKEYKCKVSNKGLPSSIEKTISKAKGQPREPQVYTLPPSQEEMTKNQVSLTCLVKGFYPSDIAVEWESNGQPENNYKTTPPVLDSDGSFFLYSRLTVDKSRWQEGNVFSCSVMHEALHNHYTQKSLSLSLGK
light: DIQLTQSPSFLSAYVGDRVTITCKASQDVGTAVAWYQQKPGKAPKLLIYWASTLHTGVPSRFSGSGSGTEFTLTISSLQPEDFATYYCQHYSSYPWTFGQGTKLEIKRTVAAPSVFIFPPSDEQLKSGTASVVCLLNNFYPREAKVQWKVDNALQSGNSQESVTEQDSKDSTYSLSSTLTLSKADYEKHKVYACEVTHQGLSSPVTKSFNRGEC
modifications: percent of population: Asp 151/167 isomerization 1.1; percent of population: Met 248 oxidation 5.4; Asp 261/266/276 isomerization 2.8; Asn 311 deamidation 6.5; Met 354 oxidation 1.9; Asn 380 deamidation 10.0; Asn 385 deamidation 2.1; Met 424 oxidation 1.7; Asn 430 deamidation 1.2; Lys 443 clipped 97.8
notes: Mixture; HMW 1.4%, acidic peaks 33.8%
- Relative Potency, MSD Binding [5]: 88%
- Relative Potency, Cell-Based Bioassay [6]: 94%
- Kd [7]: 2250 nM

B4: Dostarlimab reference material (antibody, human IgG4 S228P, kappa)
heavy: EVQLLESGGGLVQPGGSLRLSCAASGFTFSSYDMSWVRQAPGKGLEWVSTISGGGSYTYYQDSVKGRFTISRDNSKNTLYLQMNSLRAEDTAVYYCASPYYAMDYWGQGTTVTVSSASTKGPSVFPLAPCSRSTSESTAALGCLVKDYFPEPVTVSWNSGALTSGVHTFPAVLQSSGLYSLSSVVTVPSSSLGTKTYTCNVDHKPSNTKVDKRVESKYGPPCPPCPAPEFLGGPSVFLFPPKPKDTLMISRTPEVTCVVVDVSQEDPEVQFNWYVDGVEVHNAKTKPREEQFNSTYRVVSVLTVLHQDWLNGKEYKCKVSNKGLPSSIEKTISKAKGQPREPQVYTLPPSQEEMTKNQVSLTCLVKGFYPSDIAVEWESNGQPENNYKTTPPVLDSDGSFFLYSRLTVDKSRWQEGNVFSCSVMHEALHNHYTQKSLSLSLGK
light: DIQLTQSPSFLSAYVGDRVTITCKASQDVGTAVAWYQQKPGKAPKLLIYWASTLHTGVPSRFSGSGSGTEFTLTISSLQPEDFATYYCQHYSSYPWTFGQGTKLEIKRTVAAPSVFIFPPSDEQLKSGTASVVCLLNNFYPREAKVQWKVDNALQSGNSQESVTEQDSKDSTYSLSSTLTLSKADYEKHKVYACEVTHQGLSSPVTKSFNRGEC
- Kd [8]: 1690 nM

B5: Dostarlimab (antibody, human IgG4 S228P, kappa)
heavy: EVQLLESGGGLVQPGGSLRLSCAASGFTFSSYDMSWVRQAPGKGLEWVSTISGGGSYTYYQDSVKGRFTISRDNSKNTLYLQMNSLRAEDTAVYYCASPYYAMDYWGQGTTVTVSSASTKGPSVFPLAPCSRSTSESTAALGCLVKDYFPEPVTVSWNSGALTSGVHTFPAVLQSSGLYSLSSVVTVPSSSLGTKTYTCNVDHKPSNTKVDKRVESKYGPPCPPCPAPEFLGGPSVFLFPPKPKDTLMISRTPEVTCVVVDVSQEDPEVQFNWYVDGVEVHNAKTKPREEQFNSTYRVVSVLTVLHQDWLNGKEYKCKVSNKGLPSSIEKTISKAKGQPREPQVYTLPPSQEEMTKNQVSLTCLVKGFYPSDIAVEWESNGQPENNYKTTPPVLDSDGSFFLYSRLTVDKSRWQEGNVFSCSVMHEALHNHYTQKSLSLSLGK
light: DIQLTQSPSFLSAYVGDRVTITCKASQDVGTAVAWYQQKPGKAPKLLIYWASTLHTGVPSRFSGSGSGTEFTLTISSLQPEDFATYYCQHYSSYPWTFGQGTKLEIKRTVAAPSVFIFPPSDEQLKSGTASVVCLLNNFYPREAKVQWKVDNALQSGNSQESVTEQDSKDSTYSLSSTLTLSKADYEKHKVYACEVTHQGLSSPVTKSFNRGEC
modifications: N-glycan at Asn 293 (99% occupancy)
notes: also called dostarlimab drug substance (DS); anti-PD-1 antibody
- Kd [8]: 1750 nM

B6: Dostarlimab, acid degraded, pH 4.0, 25° C., 3 weeks (antibody, human IgG4 S228P, kappa)
heavy: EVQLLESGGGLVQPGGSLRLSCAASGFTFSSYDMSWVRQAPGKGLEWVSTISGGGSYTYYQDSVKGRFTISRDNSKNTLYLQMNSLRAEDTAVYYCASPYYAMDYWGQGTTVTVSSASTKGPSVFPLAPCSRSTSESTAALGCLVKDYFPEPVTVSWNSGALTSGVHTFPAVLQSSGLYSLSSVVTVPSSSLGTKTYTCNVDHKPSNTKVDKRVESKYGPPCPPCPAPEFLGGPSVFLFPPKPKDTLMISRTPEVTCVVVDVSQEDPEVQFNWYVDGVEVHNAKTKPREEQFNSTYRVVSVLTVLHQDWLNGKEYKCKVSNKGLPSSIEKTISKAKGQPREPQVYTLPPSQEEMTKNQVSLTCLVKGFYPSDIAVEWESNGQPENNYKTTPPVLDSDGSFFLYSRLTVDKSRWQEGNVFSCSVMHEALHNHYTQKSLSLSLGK
light: DIQLTQSPSFLSAYVGDRVTITCKASQDVGTAVAWYQQKPGKAPKLLIYWASTLHTGVPSRFSGSGSGTEFTLTISSLQPEDFATYYCQHYSSYPWTFGQGTKLEIKRTVAAPSVFIFPPSDEQLKSGTASVVCLLNNFYPREAKVQWKVDNALQSGNSQESVTEQDSKDSTYSLSSTLTLSKADYEKHKVYACEVTHQGLSSPVTKSFNRGEC
modifications: percent of population: Asn 137 deamidation 1.2; percent of population: Met 248 oxidation 3.1; Asp 261/266/276 isomerization 3.0; Asn 311 deamidation 7.2; Asn 380 deamidation 9.7; Asn 385 deamidation 1.8; Asp 395/397/409 isomerization 2.7; Asn 430 deamidation 1.0; Lys 443 clipped 97.0
notes: Mixture; HMW 15.2%, basic peaks 34.1%; also called Acid Hydrolysis
- Kd [9]: 1980 nM
- Relative Potency, MSD Binding [10]: 88%
- Relative Potency, Cell-Based Bioassay [11]: 125%
- Relative Potency (Potency by cell-based bioassay) [12]: 125%

B7: Dostarlimab, AAPH treated, 40° C., 1 day (antibody, human IgG4 S228P, kappa)
heavy: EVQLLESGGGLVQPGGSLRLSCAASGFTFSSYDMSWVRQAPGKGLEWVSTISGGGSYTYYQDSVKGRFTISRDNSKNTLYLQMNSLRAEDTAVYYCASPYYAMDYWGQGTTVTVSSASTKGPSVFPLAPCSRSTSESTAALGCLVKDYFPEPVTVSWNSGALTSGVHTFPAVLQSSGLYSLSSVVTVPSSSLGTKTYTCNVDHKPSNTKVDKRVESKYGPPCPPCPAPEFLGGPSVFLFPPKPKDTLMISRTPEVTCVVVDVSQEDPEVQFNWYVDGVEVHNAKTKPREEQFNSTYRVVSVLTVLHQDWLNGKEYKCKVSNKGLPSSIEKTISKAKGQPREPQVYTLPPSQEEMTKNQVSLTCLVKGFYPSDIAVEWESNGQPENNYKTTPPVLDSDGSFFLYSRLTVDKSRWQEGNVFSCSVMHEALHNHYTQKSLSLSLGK
light: DIQLTQSPSFLSAYVGDRVTITCKASQDVGTAVAWYQQKPGKAPKLLIYWASTLHTGVPSRFSGSGSGTEFTLTISSLQPEDFATYYCQHYSSYPWTFGQGTKLEIKRTVAAPSVFIFPPSDEQLKSGTASVVCLLNNFYPREAKVQWKVDNALQSGNSQESVTEQDSKDSTYSLSSTLTLSKADYEKHKVYACEVTHQGLSSPVTKSFNRGEC
modifications: percent of population: Trp 50 oxidation 38.9; Asn 137 deamidation 1.2; percent of population: Met 103 oxidation 2.5; Met 248 oxidation 47.7; Asn 311 deamidation 6.5; Met 354 oxidation 8.2; Asn 380 deamidation 8.6; Asn 385 deamidation 1.3; Met 424 oxidation 26.2; Asn 430 deamidation 1.1; Lys 443 clipped 96.7
notes: 5 mM AAPH; HMW 4.9%; also called AAPH, 40° C., 1 day; AAPH Day 1
- Relative Potency, MSD Binding [13]: 76%
- Relative Potency, Cell-Based Bioassay [14]: 44%
- Kd [15]: 2340 nM
